The record followed here is publication doi:10.1101/2021.06.20.449167 (bioRxiv, 2021).

B1: atp5f1b (atp5b) 3'UTR-50A (ssRNA)
RNA: GGGGGGGUCUUUGUCCUCUGUACUGUCUCUCUCCUUGCCCCUAACCCAAAAAGCUUCAUUUUUCUGUGUAGGCUGCACAAGAGCCUUGAUUGAAGAUAUAUUCUUUCUGAACAGUAUUUAAGGUUUCCAAUAAAAUGUACACCCCUCAGAAAAAAAAAAAAAAAAAAAAAAAAAAAAAAAAAAAAAAAAAAAAAAAAAAAAGCGGCCGC
B2: mrpl41 5'UTR (ssRNA)
RNA: GGGGCUCUUGCUGCGACGCAGCGGUCGGAAGCGGAGCAAGGUCGAGGCCGGGUUGGCGCCGGAGCCGGGGCCGCUUGGAGCUCGUGUGGGGUCUCCGGUCCAGGGCGCGGCGCGGCCGC
B3: Fy-2 (Ppp1r21), untagged subunit of the reconstituted FERRY complex (natural protein, human, UniProt Q6ZMI0 1-780, looked up)
chain: MASAELQGKYQKLAQEYSKLRAQNQVLKKGVVDEQANSAALKEQLKMKDQSLRKLQQEMDSLTFRNLQLAKRVELLQDELALSEPRGKKNKKSGESSSQLSQEQKSVFDEDLQKKIEENERLHIQFFEADEQHKHVEAELRSRLATLETEAAQHQAVVDGLTRKYMETIEKLQNDKAKLEVKSQTLEKEAKECRLRTEECQLQLKTLHEDLSGRLEESLSIINEKVPFNDTKYSQYNALNVPLHNRRHQLKMRDIAGQALAFVQDLVTALLNFHTYTEQRIQIFPVDSAIDTISPLNQKFSQYLHENASYVRPLEEGMLHLFESITEDTVTVLETTVKLKTFSEHLTSYICFLRKILPYQLKSLEEECESSLCTSALRARNLELSQDMKKMTAVFEKLQTYIALLALPSTEPDGLLRTNYSSVLTNVGAALHGFHDVMKDISKHYSQKAAIEHELPTATQKLITTNDCILSSVVALTNGAGKIASFFSNNLDYFIASLSYGPKAASGFISPLSAECMLQYKKKAAAYMKSLRKPLLESVPYEEALANRRILLSSTESREGLAQQVQQSLEKISKLEQEKEHWMLEAQLAKIKLEKENQRIADKLKNTGSAQLVGLAQENAAVSNTAGQDEATAKAVLEPIQSTSLIGTLTRTSDSEVPDVESREDLIKNHYMARIVELTSQLQLADSKSVHFYAECRALSKRLALAEKSKEALTEEMKLASQNISRLQDELTTTKRSYEDQLSMMSDHLCSMNETLSKQREEIDTLKMSSKGNSKKNKSR
B4: His6-Fy-5 (Gatd1) (natural protein, human, UniProt Q8NB37 1-220, looked up)
chain: MASERLPNRPACLLVASGAAEGVSAQSFLHCFTMASTAFNLQVATPGGKAMEFVDVTESNARWVQDFRLKAYASPAKLESIDGARYHALLIPSCPGALTDLASSGSLARILQHFHSESKPICAVGHGVAALCCATNEDRSWVFDSYSLTGPSVCELVRAPGFARLPLVVEDFVKDSGACFSASEPDAVHVVLDRHLVTGQNASSTVPAVQNLLFLCGSRK
B5: Fy-3 (C12orf4), untagged subunit of the recombinant FERRY and GST-FERRY complexes (natural protein, human, UniProt Q9NQ89 1-552, looked up)
chain: MKKNRERFCNREREFVYKFKVGSQCLELRVPLKFPVQENASHLHGRLMLLHSLPCFIEKDLKEALTQFIEEESLSDYDRDAEASLAAVKSGEVDLHQLASTWAKAYAETTLEHARPEEPSWDEDFADVYHDLIHSPASETLLNLEHNYFVSISELIGERDVELKKLRERQGIEMEKVMQELGKSLTDQDVNSLAAQHFESQQDLENKWSNELKQSTAIQKQEYQEWVIKLHQDLKNPNNSSLSEEIKVQPSQFRESVEAIGRIYEEQRKLEESFTIHLGAQLKTMHNLRLLRADMLDFCKHKRNHRSGVKLHRLQTALSLYSTSLCGLVLLVDNRINSYSGIKRDFATVCQECTDFHFPRIEEQLEVVQQVVLYARTQRRSKLKESLDSGNQNGGNDDKTKNAERNYLNVLPGEFYITRHSNLSEIHVAFHLCVDDHVKSGNITARDPAIMGLRNILKVCCTHDITTISIPLLLVHDMSEEMTIPWCLRRAELVFKCVKGFMMEMASWDGGISRTVQFLVPQSISEEMFYQLSNMLPQIFRVSSTLTLTSKH
B6: His6-Fy-4 (Cryzl1) (natural protein, human, UniProt O95825 1-349, looked up)
chain: MKGLYFQQSSTDEEITFVFQEKEDLPVTEDNFVKLQVKACALSQINTKLLAEMKMKKDLFPVGREIAGIVLDVGSKVSFFQPDDEVVGILPLDSEDPGLCEVVRVHEHYLVHKPEKVTWTEAAGSIRDGVRAYTALHYLSHLSPGKSVLIMDGASAFGTIAIQLAHHRGAKVISTACSLEDKQCLERFRPPIARVIDVSNGKVHVAESCLEETGGLGVDIVLDAGVRLYSKDDEPAVKLQLLPHKHDIITLLGVGGHWVTTEENLQLDPPDSHCLFLKGATLAFLNDEVWNLSNVQQGKYLCILKDVMEKLSTGVFRPQLDEPIPLYEAKVSMEAVQKNQGRKKQVVQF

The first data set has as its target Fy-1 (TBCK);Fy-2 (PPP1R21);Fy-3 (C12orf4);Fy-4 (CRYZL1);Fy-5 (GATD1) (Homo sapiens;Homo sapiens;Homo …, UniProt Q8TEA7;Q6ZMI0;Q9NQ89;O95825;Q8NB37 1-893;1-780;1-552;1-349;1-220, ||||). The data set can be described thus: EMSA.
Consider B1, for which the binding result was “no binding”.
On to B2, for which the binding result is given as “no binding”.

For another data set, the target named is T1, His6-Fy-1 (Tbck), subunit of the reconstituted FERRY complex (human, UniProt Q8TEA7 1-893).
T1 sequence (looked up): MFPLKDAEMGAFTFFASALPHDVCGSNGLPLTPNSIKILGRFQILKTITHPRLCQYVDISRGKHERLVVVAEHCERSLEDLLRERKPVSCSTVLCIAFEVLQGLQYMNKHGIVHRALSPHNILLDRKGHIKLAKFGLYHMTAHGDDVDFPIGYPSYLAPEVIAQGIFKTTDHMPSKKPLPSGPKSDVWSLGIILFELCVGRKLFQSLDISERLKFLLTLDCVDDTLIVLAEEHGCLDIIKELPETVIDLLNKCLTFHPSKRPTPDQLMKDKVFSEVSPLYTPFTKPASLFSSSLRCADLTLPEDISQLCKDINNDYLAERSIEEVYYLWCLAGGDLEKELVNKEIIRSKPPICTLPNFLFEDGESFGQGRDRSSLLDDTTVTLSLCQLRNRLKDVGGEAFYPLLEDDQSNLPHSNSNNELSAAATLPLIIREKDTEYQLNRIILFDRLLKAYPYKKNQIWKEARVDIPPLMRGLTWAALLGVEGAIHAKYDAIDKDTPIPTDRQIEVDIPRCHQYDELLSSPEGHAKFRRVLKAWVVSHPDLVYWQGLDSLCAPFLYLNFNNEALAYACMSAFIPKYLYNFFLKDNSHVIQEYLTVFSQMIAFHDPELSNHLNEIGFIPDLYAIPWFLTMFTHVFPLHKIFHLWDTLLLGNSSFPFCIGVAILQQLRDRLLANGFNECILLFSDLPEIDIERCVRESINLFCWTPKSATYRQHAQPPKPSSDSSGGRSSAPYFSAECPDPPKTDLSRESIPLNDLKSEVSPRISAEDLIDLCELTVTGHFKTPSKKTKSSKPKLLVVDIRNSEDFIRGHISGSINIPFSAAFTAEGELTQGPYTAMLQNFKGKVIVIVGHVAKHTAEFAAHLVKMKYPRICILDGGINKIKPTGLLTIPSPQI
The data set can be described thus: SEC.
With B3, the “stoichiometry N” value amounted to 2.
The same measure, in the same setting: in the case of B4 it was 4; in that of B5, 1; in that of B6, 2.
